Assay results from patent publication US20110262964A1 (published 2011).
“And” between values parts separate entries of the source, which are not always exact repeats. Equal values may be shown once.

Assays:
[1] = target: T1, maltose binding protein MalE from Escherichia coli (Escherichia coli, UniProt P0AEX9 27-396 = MBP); assay: ΔG(wt)-ΔG(mut) from Kd by competition Biacore (reference itself)
[2] = target: T1, maltose binding protein MalE from …; assay: competition Biacore in solution, buffer M2; buffer M2
[3] = target: bt-MalE, hybrid between a peptide that can be biotinylated in vivo by E. coli and MalE (Escherichia coli)
[4] = target: T1, maltose binding protein MalE from …; assay: competition Biacore in solution, buffer L2; buffer L2
bovine serum albumin = target: T2, bovine serum albumin (bovine, UniProt P02769 25-607); assay: fluorescence titration of 0.3 µM DarpOff7(N45ANBD) by BSA, 25 °C, buffer M1
T2 construct: also called BSA
T2 sequence (P02769 25-607 limits assumed): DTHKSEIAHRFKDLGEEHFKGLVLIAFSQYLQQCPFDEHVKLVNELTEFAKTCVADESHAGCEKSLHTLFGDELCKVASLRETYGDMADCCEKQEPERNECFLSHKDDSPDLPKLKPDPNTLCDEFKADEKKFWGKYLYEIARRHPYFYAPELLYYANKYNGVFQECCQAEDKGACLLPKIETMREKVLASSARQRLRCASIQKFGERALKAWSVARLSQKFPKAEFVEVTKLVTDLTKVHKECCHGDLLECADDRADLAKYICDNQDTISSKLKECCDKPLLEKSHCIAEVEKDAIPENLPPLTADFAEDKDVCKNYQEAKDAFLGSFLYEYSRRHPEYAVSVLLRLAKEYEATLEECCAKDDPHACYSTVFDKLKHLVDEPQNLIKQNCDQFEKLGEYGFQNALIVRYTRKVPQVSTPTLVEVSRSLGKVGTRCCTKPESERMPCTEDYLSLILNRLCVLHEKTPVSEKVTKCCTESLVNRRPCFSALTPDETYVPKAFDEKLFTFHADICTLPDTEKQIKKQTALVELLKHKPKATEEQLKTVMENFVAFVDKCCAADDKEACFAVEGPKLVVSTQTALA

B1: DarpMbp3-16(wt) (designed binder)
chain: MRGSHHHHHHGSDLGKKLLEAAHAGQDDEVRILMANGADVNAMDNFGVTPLHLAAYWGHFEIVEVLLKYGADVNASDATGDTPLHLAAKWGYLGIVEVLLKYGADVNAQDKFGKTAFDISIDNGNEDLAEILQKLN
ΔΔG [1]: 0 kcal/mol

B2: DarpOff7(wt) (designed binder)
chain: MRGSHHHHHHGSDLGRKLLEAARAGQDDEVRILMANGADVNAADNTGTTPLHLAAYSGHLEIVEVLLKHGADVDASDVFGYTPLHLAAYWGHLEIVEVLLKNGADVNAMDSDGMTPLHLAAKWGYLEIVEVLLKHGADVNAQDKFGKTAFDISIDNGNEDLAEILQKLN
Kd [2]: 5.6 nM
koff [3]: 0.0051 s⁻¹ and 0.0062 s⁻¹ and 0.0061 s⁻¹
kon [3]: 660000 M⁻¹ s⁻¹ and 250000 M⁻¹ s⁻¹ and 550000 M⁻¹ s⁻¹
Kd [4]: 11 nM

B3: DarpOff7(N45ANBD) (designed binder)
chain: MRGSHHHHHHGSDLGRKLLEAARAGQDDEVRILMANGADVNAADCTGTTPLHLAAYSGHLEIVEVLLKHGADVDASDVFGYTPLHLAAYWGHLEIVEVLLKNGADVNAMDSDGMTPLHLAAKWGYLEIVEVLLKHGADVNAQDKFGKTAFDISIDNGNEDLAEILQKLN
notes: also called conjugate at position Asn45; Asn45
binding result (bovine serum albumin): no binding (tested: 2.4 µM)
